Among the data in article doi:10.1101/2023.06.28.546964 are binding signal (fold affinity gain) and binding signal (fold affinity gain (up to)) values, retold here.

The target in the data set is T1, PfAgo binding-pocket mutant (UniProt Q8U3D2).
T1 sequence: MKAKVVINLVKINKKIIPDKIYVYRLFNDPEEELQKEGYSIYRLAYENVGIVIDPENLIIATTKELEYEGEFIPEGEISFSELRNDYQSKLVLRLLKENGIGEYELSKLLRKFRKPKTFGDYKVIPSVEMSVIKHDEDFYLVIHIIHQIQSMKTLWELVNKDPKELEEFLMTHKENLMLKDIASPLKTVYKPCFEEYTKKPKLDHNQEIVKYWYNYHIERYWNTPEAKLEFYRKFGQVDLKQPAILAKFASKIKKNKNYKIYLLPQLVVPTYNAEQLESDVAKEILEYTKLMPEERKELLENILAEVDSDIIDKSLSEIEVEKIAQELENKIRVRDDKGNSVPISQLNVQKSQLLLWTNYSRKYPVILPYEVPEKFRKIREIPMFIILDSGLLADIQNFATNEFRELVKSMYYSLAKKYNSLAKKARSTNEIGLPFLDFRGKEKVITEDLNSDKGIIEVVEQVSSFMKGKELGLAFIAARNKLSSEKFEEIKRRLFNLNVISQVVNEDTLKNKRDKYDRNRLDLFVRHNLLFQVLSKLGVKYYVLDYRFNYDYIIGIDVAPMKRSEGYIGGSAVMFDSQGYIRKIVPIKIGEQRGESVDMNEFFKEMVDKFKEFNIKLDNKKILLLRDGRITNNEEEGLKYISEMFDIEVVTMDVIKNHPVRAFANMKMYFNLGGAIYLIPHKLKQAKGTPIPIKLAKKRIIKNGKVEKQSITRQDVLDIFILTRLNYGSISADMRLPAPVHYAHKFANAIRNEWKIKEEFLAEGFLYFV
Description: fluorescence polarization. (In general: Polarisation of emitted light reports the rotation of a fluorescent probe.)

In turn, “ATATACTATACAACCTACTACCTCGTATAAATTTTTAAATAAATA [45nt DNA target]” came in with a binding signal (fold affinity gain) of 3.
Consider TGACGTAGTAGGTTGT [guide_m4], for which the binding signal (fold affinity gain (up to)) (5' phosphate) amounted to 2.
